# Biological target: T1, EbfC (Borrelia burgdorferi, UniProt O51418 1-99)
# T1 sequence: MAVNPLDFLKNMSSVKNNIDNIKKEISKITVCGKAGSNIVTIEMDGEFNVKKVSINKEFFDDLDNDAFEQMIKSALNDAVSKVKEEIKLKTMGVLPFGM
# Assay: EMSA
row,Binder,binding result
1,b-C20 (dsDNA) DNA 1: TTGTAATGAGTAGTGCATTTGCAATGGAGAGATTTTGGGGAGTTGTTTAAAATTACATTTGCGTTTTGTTAAAACACAACAGCTGAATGTAAAAAAATTATATATTTAAATCTTTGAAATATTGC DNA 2: GCAATATTTCAAAGATTTAAATATATAATTTTTTTACATTCAGCTGTTGTGTTTTAACAAAACGCAAATGTAATTTTAAACAACTCCCCAAAATCTCTCCATTGCAAATGCACTACTCATTACAA,no binding
2,b-C50 (dsDNA) DNA 1: TTGTAATGAGTAGTGCATTTGCAATGGAGAGATTTTGGGGAGTTGTTTAAAATTACATTTGCGTTTTGTTAAAACACAACAGCTGAATGTATCAAAATTATATATTTAAATCTTTGAAATATTGC DNA 2: GCAATATTTCAAAGATTTAAATATATAATTTTGATACATTCAGCTGTTGTGTTTTAACAAAACGCAAATGTAATTTTAAACAACTCCCCAAAATCTCTCCATTGCAAATGCACTACTCATTACAA,no binding

# Biological target: T1, EbfC
# Assay: EMSA
# Remark: another data set of the same source
row,Binder,binding result
1,b-C30 (dsDNA) DNA 1: TTGTAATGAGTAGTGCATTTGCAATGGAGAGATTTTGGGGAGTTGTTTAAAATTACATTTGCGTTTTGTTAAAACACAACAGCTGAATGTAACTAAATTATATATTTAAATCTTTGAAATATTGC DNA 2: GCAATATTTCAAAGATTTAAATATATAATTTAGTTACATTCAGCTGTTGTGTTTTAACAAAACGCAAATGTAATTTTAAACAACTCCCCAAAATCTCTCCATTGCAAATGCACTACTCATTACAA,binds
2,b-C40 (dsDNA) DNA 1: TTGTAATGAGTAGTGCATTTGCAATGGAGAGATTTTGGGGAGTTGTTTAAAATTACATTTGCGTTTTGTTAAAACACAACAGCTGAATGTGACAAAATTATATATTTAAATCTTTGAAATATTGC DNA 2: GCAATATTTCAAAGATTTAAATATATAATTTTGTCACATTCAGCTGTTGTGTTTTAACAAAACGCAAATGTAATTTTAAACAACTCCCCAAAATCTCTCCATTGCAAATGCACTACTCATTACAA,binds

# Biological target: the molecule itself
# Assay: SEC
row,Binder,stoichiometry N
1,"EbfC K16A mutant (natural protein, Borrelia burgdorferi strain B31, UniProt O51418 1-99, looked up) MAVNPLDFLKNMSSVANNIDNIKKEISKITVCGKAGSNIVTIEMDGEFNVKKVSINKEFFDDLDNDAFEQMIKSALNDAVSKVKEEIKLKTMGVLPFGM",2
2,"EbfC D20A mutant (natural protein, Borrelia burgdorferi strain B31, UniProt O51418 1-99, looked up) MAVNPLDFLKNMSSVKNNIANIKKEISKITVCGKAGSNIVTIEMDGEFNVKKVSINKEFFDDLDNDAFEQMIKSALNDAVSKVKEEIKLKTMGVLPFGM",2
3,"EbfC E85A mutant (natural protein, Borrelia burgdorferi strain B31, UniProt O51418 1-99, looked up) MAVNPLDFLKNMSSVKNNIDNIKKEISKITVCGKAGSNIVTIEMDGEFNVKKVSINKEFFDDLDNDAFEQMIKSALNDAVSKVKAEIKLKTMGVLPFGM",2
4,"EbfC K23A mutant (natural protein, Borrelia burgdorferi strain B31, UniProt O51418 1-99, looked up) MAVNPLDFLKNMSSVKNNIDNIAKEISKITVCGKAGSNIVTIEMDGEFNVKKVSINKEFFDDLDNDAFEQMIKSALNDAVSKVKEEIKLKTMGVLPFGM",2
5,"EbfC K88A mutant (natural protein, Borrelia burgdorferi strain B31, UniProt O51418 1-99, looked up) MAVNPLDFLKNMSSVKNNIDNIKKEISKITVCGKAGSNIVTIEMDGEFNVKKVSINKEFFDDLDNDAFEQMIKSALNDAVSKVKEEIALKTMGVLPFGM",2
6,"EbfC D78A mutant (natural protein, Borrelia burgdorferi strain B31, UniProt O51418 1-99, looked up) MAVNPLDFLKNMSSVKNNIDNIKKEISKITVCGKAGSNIVTIEMDGEFNVKKVSINKEFFDDLDNDAFEQMIKSALNAAVSKVKEEIKLKTMGVLPFGM",2
7,"EbfC K84A mutant (natural protein, Borrelia burgdorferi strain B31, UniProt O51418 1-99, looked up) MAVNPLDFLKNMSSVKNNIDNIKKEISKITVCGKAGSNIVTIEMDGEFNVKKVSINKEFFDDLDNDAFEQMIKSALNDAVSKVAEEIKLKTMGVLPFGM",2
8,"EbfC K82A mutant (natural protein, Borrelia burgdorferi strain B31, UniProt O51418 1-99, looked up) MAVNPLDFLKNMSSVKNNIDNIKKEISKITVCGKAGSNIVTIEMDGEFNVKKVSINKEFFDDLDNDAFEQMIKSALNDAVSAVKEEIKLKTMGVLPFGM",2

# Biological target: T1, EbfC
# Assay: EMSA
# Remark: another data set of the same source
row,Binder,binding result
1,b-C1/2+3 (dsDNA) DNA 1: TTGTAATGAGTAGTGCATTTGCAATGGAGAGATTTTGGGGAGTTGTTTAAAATTACATTTGCGTTTTGTTACAACACAACAGCTGAACACAACAAAATTATATATTTAAATCTTTGAAATATTGC DNA 2: GCAATATTTCAAAGATTTAAATATATAATTTTGTTGTGTTCAGCTGTTGTGTTGTAACAAAACGCAAATGTAATTTTAAACAACTCCCCAAAATCTCTCCATTGCAAATGCACTACTCATTACAA,binds
2,b-C2+3 (dsDNA) DNA 1: TTGTAATGAGTAGTGCATTTGCAATGGAGAGATTTTGGGGAGTTGTTTAAAATTACATTTGCGTTTTGTTACAACACAACAGCTGAATGTAACAAAATTATATATTTAAATCTTTGAAATATTGC DNA 2: GCAATATTTCAAAGATTTAAATATATAATTTTGTTACATTCAGCTGTTGTGTTGTAACAAAACGCAAATGTAATTTTAAACAACTCCCCAAAATCTCTCCATTGCAAATGCACTACTCATTACAA,binds

# Source: PMC2665219 (Nucleic Acids Research, 2009)
